Earlier results, collected in patent US20050191360A1, “Particles for inhalation having rapid release properties” (Advanced Inhalation Research, Inc., priority 2004, published 2005).

Settings: rat, in vivo

PTH34: parathyroid hormone fragment given as dry powder formulation via intratracheal delivery (Patton et al.)
time at which the peak PTH level was reached: about 15 minutes
